From publication PMC10562830 (Science translational medicine, 2023)

B1: 506.A08 Fab (Fab, V domains shown)
VH: EEQLVESGGGLVQPGGSLRLSCAASGFTFSSYSMNWVRQAPGKGLEWVSYISSSSSTIHYADSVKGRFTISRDNAKNSLYLQMNSLRAEDTAVYYCAREGNSGYEPLDYWGQGTLVTVS
VL: not shown
B2: 506.A08 (antibody, V domains shown)
VH: B1 VH
VL: not shown
B3: 506.C01 Fab (Fab, V domains shown)
VH: QVQLQESGPGLVKPSQTLSLTCTVSGGSISSDDYYWTWIRLPPGKGLEWIGYIFYTGGTYYNPSLKSRVTISLDRSKNQFSLKLSSVTAADTAVYFCARAPETYCSTTNCYKGYFDSWGQGTLVTVSS
VL: DIQMTQSPSSVSASVGDRVTITCRASQGISSWLGWYQQKPGKAPKLLIYAASSLQSGVPSRFSGSGSGTDFTLTISSLQPEDFATYYCQQANSFPRTFGQGTKVEIK
B4: 506.C01 (antibody, V domains shown)
VH: B3 VH
VL: B3 VL

Key:
[1] = target: Chikungunya virus-like particles of the 37997 strain (Chikungunya virus, strain 37997, strain); test: cryo-EM structure
[2] = target: recombinant p62-E1 protein derived from the CHIKV-LR 2006 strain (Chikungunya virus, LR 2006 …, UniProt Q1H8W5, strain); test: ELISA

| Binder | binding result [1] | binding result [2] |
| --- | --- | --- |
| B1 | binds | – |
| B2 | – | binds |
| B3 | binds | – |
| B4 | – | binds |
